Experiment: soluble on expression in E. coli; label from the status in PepcDB or PDB records

Sequence | soluble on expression in E. coli
MSLKHQETTSQQYNFSIIKHGDISTPQGFTAGGMHIGLRANKKDFGWIYSSSLASSAAVYTLNQFKAAPLIVTEDTLQKSKGKLQALVVNSANANSCTGQQGIDDARQTQTWVAQQLQIPSEHVAVASTGVIGEYLPMDKIKTGTEHIKDTNFATPGAFNEAILTTDTCTKHIAVSLKIDGKTVTIGGSAKGSGMIHPNMATMLAFITTDASIESNTLHQLLKSSTDHTFNMITVDGDTSTNDMVLVMANHQVEHQILSQDHPQWETFVDAFNFVCTFLAKAIARDGEGATKLISVNVSGAKSISDARKIGKTIVSSNLVKSAIFGEDANFGRIITAIGYSGCEIDPKCTYVQLNQIPVVDKGMAVLFDEQAMSNTLTHEHVTIDVQLGLGNAAATAYGCDLSYDYVRINASYRTEGHHHHHH | soluble
MAQERPSCAVEPEHVQRLLLSSREAKKSAYCPYSRFPVGAALLTGDGRIFSGCNIENACYPLGVCAERTAIQKAISEGYKDFRAIAISSDLQEEFISPCGACRQVMREFGTDWAVYMTKPDGTFVVRTVQELLPASFGPEDLQKIQ | soluble
AHHHHHHGSFKILRKERLAPGINLFEIESPRIAKHAKPGQFVMIRLHEKGERIPLTIADVDISKGSITIVAQEVGKTTRELGTYEAGDYILDVLGPLGKPSHIDYFGTVVMIGGGVGVAEIYPVAKAMKEKGNYVISILGFRTKDLVFWEDKLRSVSDEVIVTTNDGSYGMKGFTTHALQKLIEEGRKIDLVHAVGPAIMMKAVAELTKPYGIKTVASLNPIMVDGTGMCGACRVTVGGEVKFACVDGPEFDAHLVDWDQLMNRLAYYRDLEKISLEKWERERRMV | soluble
MAHHHHHHMRSLTRIASAGVRLDNIDLIGCVGATAAAKLPYTWQVGKSFSDNSASAAAAGGRTTSKITGSVYAVHQQHLFLPLTIEIGFGVQMKHDKDEEYVSRLVGGVLVRVNSSGTYGMLLDSSRFIMAGSAEMIILSKGQAPILRTSR | not soluble
MGSDKIHHHHHHMKICVLYSGGKDSTYALHWAVFKGFEVVCLITLIPKREDSWMFQYPNVIYTKYQAEAMDFKLITFGTSGEKDKELEDLKKALLQAKNEGADGIVSGALLSDYQRLNISIIAEELGLKTYTPLWRKSQEEYMRWLVKEGFKFIITSASAYGFPFDLVGKEITTEDVEKIIERARRYGFNPAFEGGEAETFVTYAPLFKTQLRVNGKLKRISEYECRYEITDIH | not soluble
MTVPDRSEIAGKWYVVALASNTEFFLREKDKMKMAMARISFLGEDELKVSYAVPKPNGCRKWETTFKKTSDDGEVYYSEEAKKKVEVLDTDYKSYAVIYATRVKDGRTLHMMRLYSRSPEVSPAATAIFRKLAGERNYTDEMVAMLPRQEECTVDEV | soluble
EDICFLLADGRVYVAANQSFEPELLLSSSADSRLYVTDRGLFICAENRIYFIEKGRKTTQFPIADVLGVGAMNESNTAYIALGEEGLASLLLAEGSTAEAMPVAFDGPGDNDFYEMRFSHGRLYAASGLWGTNLMGHAGMVKLYDGNRWTNFDKKTVQEQLGGGFSFNDAIDIAVSNGDPDHFFVGTWGNGLFEFKDGKAIARYSGNETAIAECNPGDARVKAIAFDNKGNLWGTLGAVGKNIFMYDPQSSTWHSFSYPDVANLASFGNMIILPNGDKWVNILHRSGGSTRKGVLIFNDRGTPETTSDDSHLYVEQFVNRLGAAIGHKTIYAMAVDHNGSVWMGSDIGIFGVYNAAGVLSSTSTPIAVRPVGGEEPNLYYVLDKVTVTDIVVDKLNHKWVATQGTGLYLLSEDCSKILAQFTVENSPLLSNNILSLALNDDNGLLYIGTADGLMTFQTGTGSGSASELDGVYVYPNPLRPEYPDGVTIAGLQAGCSVKITDTTGRLLYQTESVTTEVKWNARGADGNRVASGVYAVAVYDPVSKKSKLIRFAVIR | not soluble
MAHHHHHHMGSCCAKSDTSVDIDDSGRGVERDTEDDNNVYILQYQSRGEVLKMLELEPTPHEASVMTQSPSLPTDGPAAEECAEAELSDPLSCSSTTIVTVRSERRAADRFSANSLTWTLPEVSATTVSTRFDHARTTSFMGSDDDFSSVEWSANSRKDRRLMLLRDRDRAAQRDMVMNEMDQRRFIAEHANRAHRAILVTYIRNRLEIERRVSYEEFLVERNAFLLHELEAREPLVRRTVELQAHSELLNKMQQQRLLRNRGK | soluble
MGSDKIHHHHHHMATPEFKYQKPFPMGDDTTEYYLLTKEYVSVDKFGDHDVLKVEPEALRLLARTAFHDIAFYLRPEHQQQVARILSDPEASENDKFVALTFLRNAEVSAKGQLPFCQDTGTAIILGKKGQQVWTGGHDEEQLSHGVYDTYTQENLRYSQNAPLDMYKEVNTGCNLPAQIDLMAVDGMEYDFLCIAKGGGSANKTYLYQETKALLNPKTLVNFLVDKMSSLGTAACPPYHIAFVIGGTSAETNLKTVKLASAKYYDNLPTSGNEGGRAFRDVELEKEVLEAAYHLGLGAQFGGKYFAHDVRIIRLPRHGASCPVGMGVSCSADRNIKAKINKDGIWIEKMETNPTRLIPESMREGTEGTVVKVDLNRPMPEILRELSQYPVSTRLSLSGTIIVGRDIAHAKLKERIDRGEGLPDYIKNHPIYYAGPAKTPKGMPSGSFGPTTAGRMDSYVDLFQSHGGSMVMIAKGNRSQQVTDACKKYGGFYLGSVGGPAAILAQDSIKKVECLEYPELGMEAIWKIEVEDFPAFILVDDKGNDFFTQIREKCKGCALH | not soluble
MTDSTIRIAIVGAGGRMGRQLIQAVTQMEGVVLGAAIERKGSTLVGSDAGELAGVGLLNVIVGDDLSQLTDNFDVLIDFTRPEGTLEHLAICRQHRKAMVIGTTGFDEAGKAAISEAAADIGIVFAANFSVGVNVVLKLLEKAAKVMGDYTDIEIIEAHHRHKVDAPSGTALAMGEAIADAMGRSLKDCAVYSREGYTGERKPGTIGFATVRAGDIVGEHTAMFADIGERVEITHKATSRMTFAHGAVKSAIWLGKHDNGLFDMRDVLNLNEL | soluble
MYSEERRRQIASLTAVEGRVNVTELAARFDVTAETIRRDLAVLDREGVVHRVHGGAVANQTFQTAEFSLDTRSRSASGAKNSIAHAALSYLPEAQGGLFLDAGTTTAALAELLAAQPFAKHWSIVTNSLSIALTLANSGLDEIQLLGGSVRAITQAVVGDTALRTLALMRADVAFIGTNALTIDHGLSTADSQEAAIKSAMITNAHKVVVLCDSTKMGTDYLVSFGSISDIDVIITDANAPESFVKALRDRDVEVIIA | not soluble
MPRVKAAQAGRQSSAKRHLAEQFAVGEIITDMAKKEWKVGLPIGQGGFGCIYLADMNSSESVGSDAPCVVKVEPSDNGPLFTELKFYQRAAKPEQIQKWIRTRKLKYLGVPKYWGSGLHDKNGKSYRFMIMDRFGSDLQKIYEANAKRFSRKTVLQLSLRILDILEYIHEHEYVHGDIKASNLLLNYKNPDQVYLVDYGLAYRYCPEGVHKEYKEDPKRCHDGTIEFTSIDAHNGVAPSRRGDLEILGYCMIQWLTGHLPWEDNLKDPKYVRDSKIRYRENIASLMDKCFPEKNKPGEIAKYMETVKLLDYTEKPLYENLRDILLQGLKAIGSKDDGKLDLSVVENGGLKAKTITKKRKKEIEESKEPGVEDTEWSNTQTEEAIQTRSRTRKRVQK | soluble
TPAGSFGLEFSFSYQKFTASFQPNYRRQTYSYSNTYEWHDANNVQNYLQLTYNQKTQLDYIEFPLFIRYDIISGAFKPFVQAGFYYAILNSATKQLNIEGVDHSGGTSRSFTEPVTIIGADDLFINSSIGAALGLGTSYKVGNIRLILDATYRMGLNNISNVQNRYISNSLSGAGDVSDDLKLNNITFSFGCLFPMKFLISPSHKAVD | not soluble
MLETRMQTTPLKIGISACLLGAKVRFDGGHKISHFVTNELDRYAEFVSVCPEMGMGLPVPRPTLRLISENERIALVETKDSSRDHTAALESYSQQKVAELQHAELCGYIVCAKSPSCGMERVKVYKHNGTEKDGVGVYTRILMEKMPWLPIEEDGRLNDPVLRENYITRVFCLHDFYTSMGDAPSAKKIVEFHSRYKLTLMAHNPQAYRALGRLVANVKQYPLDSFIQEYRLGLMQALAHRASRKNNTNVLMHLQGYFKRSLNKLQKAELAQVIESYRVGELPLLAPITLLKHYLALFPDAYLAQQRYLNPYPQELKLRYGL | not soluble
MGSDKIHHHHHHMKTLIKNVHILTMDEQFSEIKAGYLVIEEDTIVELAPMTTLDEKRMAANQVIDGQNGILMPGMINTHTHVGMIPFRSLGDDVPDRLRRFLFPLEQFMTKELVGCSSDYAIAEMLLSGITSFCDMYYFEDEIAKSCEKMSVRALLGETIIDMPTCDSPEPSGGLFYAETFIRKWQGHPLITPMLAPHAPNTNSPEVLAKIIELSRQYQVPVTMHVAEMTYEMAEFEKAYQKTPIAFLEELGYLSEPFILAHCILATDEDLASLAATNGKARVAHCIGANTKSAKGVAPIKQMLDQGIIVGLGTDGPSSGNTLDLFTQMRMVANFHKTAHQDRSLFPAKEIVYLATMGGAKTLGLAEQVGSLEVDKKADITLIETQSVNMFPIFDAYSALVYSANASNVEAVWVNGQQLVANKELQQANLKEIKEKLYQAMNTFVKEAKKRAAL | not soluble
MGSDKIHHHHHHVAASPLRGRTPHRRGPRACRRGPLPRVGAGGLRQMTATEAYLQKGWLRFAAEESIRDWAAHAQRCAETATADPAHAKWLDCEGTWFIGVDALPNDPDGRLPSGPPLEGAALDFIRAHFGEIPALHRAQLSVIYPGYPRPRRGESDAAFGYRCKRDGAHVDGIKIYGTARRRRVEEPHAWVLGLPLNKTSKNAAPLVVWEGSHLIMREAFRLAFEGIALEDWAHVDITDIYTAARREVFETCKRVEVHANPGEAYLMHRLCLHGVAPWADGASATDGAGRMIAYFRPEMPNWQAHWLSDL | not soluble
MGSDKIHHHHHHMQKLQTVNAETLLYEPLEKPSFVVDSLIPTGLSLFCGSQKIGKSWLMLKLCLCVSQGIPLWDMPTMEGDVLYLCLEDTFCRIQDRLFRLTDEASGRLHFAVASCKLSDGLIVQLEDYLKDYPDSRLIVIDTLQKVRTASKDNAYASDYGDISLIKDFADRHSLAVIVVHHIRKQNDSDVFNKVSGTTGLTGSADATFVLEKEKRASDTAKLYVTGRDTPYQEYTLRFRDCRWELVERKTQEQLAKETIPDVLFRLVDFMRDKEEWIGTATELLAAMGETETIPTVITKWLNEYRTTFLSENRICYQYSRRKDGRRIALARRAGDSGDGGDSDIRIPPCYCH | not soluble
MLDFKPIELKDRELFHEYLKDYDFLTYEYSFLTLYIWRKMYNTEFAIVDDTIVIKKRTANNGTYFMQPIGADKSKIADITLKLNTLRKNNPDFKYLYGDVETPFLEQLHENFGNLVTSHEDKNNFDYIFNSKDLIKLSGKKYHRKKNQYNQFIKKYDYRIEEIQSPEVIKNCIDLSLKWYDYKSLQSEQLKNEQKAIFDIFSNIKIFNNIKGIAVYVNNEIAGFAIGEKLNSKMATVHFEKGNYNFSGIYPFLNKSLVEIFFRDVEFINLQEDLGLEGLRRAKSAYQPIKLEKKYLVNI | not soluble
DVQLQESGTVLARPGASVKMSCKASGYSFTSYWMHWIKQRPGQGLEWIGGVYPGDSHTSYNQKFKGKAKLTAVTSASTAYMELSSLTNEDSAVYYCTRSGFDYGNEDWGQGTTLTVSSAKTTPPSVYPLAPGSAAQTNSMVTLGCLVKGYFPEPVTVTWNSGSLSSGVHTFPAVLQSDLYTLSSSVTVPSSPRPSETVTCNVAHPASSTKVDKKI | soluble
MAHHHHHHMEDGVIISGDYIQMEKDKVKRINEHNFEQVHDVESDNLYRSKCSGILLKTPYYPYKYDIMNTSYKYMPKVGDLVIGIVKSKKLDYYQMDINCNCECIIHKIESFKYATKNSFPNLANGTLLYMIVEKINLDNNSVVASCINSSDVKSWINYENYLGELVDGYMFPVSISYAKSLIGDKCYLLDLIGADVSYEVAVGHNGR | not soluble
MMEQKQEIHATVSINNVQYEVIKNFRDGFSEEAFKERYAEILNKYDYIVGDWGYEQLRLRGFFDDSNQRATYDTKISTLTEYLYEYCNFGCAHFVLRKVKK | not soluble
